Test results published in patent US20220204583A1 (WISCONSIN ALUMNI RESEARCH FOUNDATION, published 2022).
Where a chain is given by its changes, count along the chain named.

B1: VLR-Fc-46 (Fc fusion)
chain: ACPSQCSCSGTTVDCSGKSLASVPTGIPTTTRWLHLHRNQLTKLEPGVFDSLTQLTYLNLGGNQLTALPVGVFDKLTNLKELKLYSNQLQALSEGLFDRLGKLQHLDLSKNQLKSIPHGAFDRLSSLTHAYLFGNPWDCECRDIMYLRNWVADHTSIVMRWDGKAVNDPDSAKCAGTNTPVRAVTEASTSPSKCPGYVAT
notes: Dimeric recombinant VLR-rabbit IgG-Fc fusion secreted from HEK293F cells; also called VLR 46; VLR46; not shown: rabbit IgG-Fc from vector pIRES-VLR-Fc, C-terminal of the VLR
B2: VLR-Fc-30 (Fc fusion)
chain: B1 chain with R32Q, W33I, H35R, H37Y, L41I
notes: Dimeric recombinant VLR-rabbit IgG-Fc fusion secreted from HEK293F cells; also called VLR 30; VLR30; not shown: rabbit IgG-Fc from vector pIRES-VLR-Fc, C-terminal of the VLR
B3: VLR-Fc-11 (Fc fusion)
chain: B1 chain with T12E, D14R, S16E, G17S, K18R, T25A, W33R
notes: Dimeric recombinant VLR-rabbit IgG-Fc fusion secreted from HEK293F cells; also called VLR 11; VLR11; not shown: rabbit IgG-Fc from vector pIRES-VLR-Fc, C-terminal of the VLR

Each binder was assayed against T1, recombinant insulin receptor ectodomain (UniProt P15208 28-946, limits assumed) (assay: competition of live bEnd.3 (MBEC) cell surface binding by excess recombinant receptor ectodomain).
T1 construct: extracellular domain; Bought; The chain make-up (alpha/beta) is not described; also called rIR; IR
T1 sequence (P15208 28-946 limits assumed): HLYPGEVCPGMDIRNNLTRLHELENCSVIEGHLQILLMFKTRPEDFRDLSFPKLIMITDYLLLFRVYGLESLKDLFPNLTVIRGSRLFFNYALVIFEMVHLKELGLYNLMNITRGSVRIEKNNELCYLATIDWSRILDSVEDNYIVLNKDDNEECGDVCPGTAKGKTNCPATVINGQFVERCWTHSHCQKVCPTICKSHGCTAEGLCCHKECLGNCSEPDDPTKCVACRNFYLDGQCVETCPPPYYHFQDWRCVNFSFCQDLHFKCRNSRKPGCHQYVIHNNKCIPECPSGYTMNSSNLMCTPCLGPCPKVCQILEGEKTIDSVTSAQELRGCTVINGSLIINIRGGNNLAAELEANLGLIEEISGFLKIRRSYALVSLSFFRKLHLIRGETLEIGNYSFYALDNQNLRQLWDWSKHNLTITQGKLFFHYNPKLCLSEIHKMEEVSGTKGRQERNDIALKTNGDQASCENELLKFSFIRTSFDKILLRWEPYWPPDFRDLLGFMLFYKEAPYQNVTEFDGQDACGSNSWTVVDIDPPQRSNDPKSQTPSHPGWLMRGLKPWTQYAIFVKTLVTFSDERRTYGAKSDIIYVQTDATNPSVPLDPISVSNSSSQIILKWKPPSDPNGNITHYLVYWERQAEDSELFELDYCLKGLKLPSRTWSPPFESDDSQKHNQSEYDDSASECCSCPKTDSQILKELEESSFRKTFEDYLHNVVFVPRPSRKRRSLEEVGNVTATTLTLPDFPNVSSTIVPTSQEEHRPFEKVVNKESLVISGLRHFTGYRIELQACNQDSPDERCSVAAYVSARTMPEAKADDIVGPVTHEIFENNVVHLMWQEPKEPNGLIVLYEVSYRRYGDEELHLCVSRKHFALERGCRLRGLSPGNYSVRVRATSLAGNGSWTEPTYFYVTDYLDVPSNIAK
Method: (§1) Competition assay. 2 μM recombinant receptor ecto-domain proteins, rIR (R&D systems, 7544-MR), rLDLR (R&D systems, 2255-LD), and rTfR (Sino Biologics, 50741-M07H) were incubated with 200 nM VLR-Fc proteins in serum-free complete growth media for 30 minutes and then applied to serum-starved bEnd.3 cells in 96-well plates to allow for VLR-Fc binding to cell surface receptors. Plates were incubated at 4° C. for 2 hours. After extensive washing with ice cold PBS cells were fixed with 2% PFA, permeabilized, labeled with IRDye reagents, and analyzed as described above.

Row | Binder | binding result
1 | B1 | no binding (tested: 2 µM receptor ectodomain, 200 nM VLR-Fc)
2 | B2 | no binding (tested: 2 µM receptor ectodomain, 200 nM VLR-Fc)
3 | B3 | no binding (tested: 2 µM receptor ectodomain, 200 nM VLR-Fc)

These binders were tested against T2, recombinant transferrin receptor ectodomain (UniProt Q62351 89-763, limits assumed) in the same assay as above.
T2 construct: extracellular domain; Bought; also called rTfR; TfR
T2 sequence (Q62351 89-763 limits assumed): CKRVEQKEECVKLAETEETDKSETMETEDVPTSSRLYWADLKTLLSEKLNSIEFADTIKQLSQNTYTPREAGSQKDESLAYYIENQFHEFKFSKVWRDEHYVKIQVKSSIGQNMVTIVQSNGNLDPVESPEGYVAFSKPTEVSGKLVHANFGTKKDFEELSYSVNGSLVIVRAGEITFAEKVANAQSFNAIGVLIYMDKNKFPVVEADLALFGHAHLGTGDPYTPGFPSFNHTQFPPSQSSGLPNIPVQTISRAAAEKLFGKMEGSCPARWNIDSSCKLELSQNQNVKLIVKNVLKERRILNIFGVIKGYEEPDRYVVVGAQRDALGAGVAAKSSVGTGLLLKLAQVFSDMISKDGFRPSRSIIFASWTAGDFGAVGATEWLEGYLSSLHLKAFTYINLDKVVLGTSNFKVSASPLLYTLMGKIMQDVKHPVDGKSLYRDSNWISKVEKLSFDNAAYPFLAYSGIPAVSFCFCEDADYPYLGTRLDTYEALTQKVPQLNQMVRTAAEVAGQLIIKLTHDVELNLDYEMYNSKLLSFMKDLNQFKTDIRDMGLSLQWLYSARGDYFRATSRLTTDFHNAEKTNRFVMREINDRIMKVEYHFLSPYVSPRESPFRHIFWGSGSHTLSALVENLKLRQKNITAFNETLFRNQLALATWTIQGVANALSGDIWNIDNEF
Method: as §1

Row | Binder | binding result
4 | B1 | no binding (tested: 2 µM receptor ectodomain, 200 nM VLR-Fc)
5 | B2 | no binding (tested: 2 µM receptor ectodomain, 200 nM VLR-Fc)
6 | B3 | no binding (tested: 2 µM receptor ectodomain, 200 nM VLR-Fc)

The binders below were run against T3, recombinant low-density lipoprotein receptor ectodomain (UniProt P35951 22-790, limits assumed) in the same assay as above.
T3 construct: extracellular domain; Bought; also called rLDLR; LDLR
T3 sequence (P35951 22-790 limits assumed): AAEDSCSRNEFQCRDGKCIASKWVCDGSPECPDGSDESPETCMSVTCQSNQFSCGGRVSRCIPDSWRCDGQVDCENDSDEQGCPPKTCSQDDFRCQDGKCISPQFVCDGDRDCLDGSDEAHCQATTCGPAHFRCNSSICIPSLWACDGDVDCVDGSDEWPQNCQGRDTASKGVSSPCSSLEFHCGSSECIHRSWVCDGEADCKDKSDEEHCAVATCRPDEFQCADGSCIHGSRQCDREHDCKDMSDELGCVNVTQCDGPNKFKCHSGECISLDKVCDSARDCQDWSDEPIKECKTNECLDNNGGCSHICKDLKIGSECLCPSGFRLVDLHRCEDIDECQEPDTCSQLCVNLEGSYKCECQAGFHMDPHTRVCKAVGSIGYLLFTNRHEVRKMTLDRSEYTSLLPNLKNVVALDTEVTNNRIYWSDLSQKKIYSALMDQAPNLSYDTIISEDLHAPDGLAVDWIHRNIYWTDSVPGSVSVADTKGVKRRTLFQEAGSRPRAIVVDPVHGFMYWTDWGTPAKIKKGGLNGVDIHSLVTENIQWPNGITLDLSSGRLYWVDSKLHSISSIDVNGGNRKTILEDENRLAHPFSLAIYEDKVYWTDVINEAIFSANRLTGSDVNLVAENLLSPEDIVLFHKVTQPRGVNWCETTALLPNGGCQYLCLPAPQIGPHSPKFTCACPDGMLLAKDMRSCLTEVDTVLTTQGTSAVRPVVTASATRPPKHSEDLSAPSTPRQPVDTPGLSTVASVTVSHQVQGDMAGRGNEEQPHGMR
Method: as §1

Row | Binder | binding result
7 | B1 | no binding (tested: 2 µM receptor ectodomain, 200 nM VLR-Fc)
8 | B2 | no binding (tested: 2 µM receptor ectodomain, 200 nM VLR-Fc)
9 | B3 | no binding (tested: 2 µM receptor ectodomain, 200 nM VLR-Fc)
